Data from USRE49280 (University of Texas, dated 2022).

Molecular target: T1, TGF-β2 K25R I92V K94R (UniProt P61812 303-414, K25R; I92V; K94R)
T1 construct: mature; Immobilised on the SPR sensor surface
T1 sequence (looked up): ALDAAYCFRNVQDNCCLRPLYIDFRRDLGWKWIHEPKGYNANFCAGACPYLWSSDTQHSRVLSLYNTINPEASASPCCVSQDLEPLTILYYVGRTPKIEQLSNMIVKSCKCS
Test: SPR, receptor injected over immobilised TGF-β2 K25R I92V K94R

maximal mass-normalized response relative to that for TβRII: ~0.5 fold of TβRII
B1: TGF-β type III receptor endoglin-like domain (receptor)
chain: GPEPSTRCELSPINASHPVQALMESFTVLSGCASRGTTGLPREVHVLNLRSTDQGPGQRQREVTLHLNPIASVHTHHKPIVFLLNSPQPLVWHLKTERLAAGVPRLFLVSEGSVVQFPSGNFSLTAETEERNFPQENEHLLRWAQKEYGAVTSFTELKIARNIYIKVGEDQVFPPTCNIGKNFLSLNYLAEYLQPKAAEGCVLPSQPHEKEVHIIELITPSSNPYSAFQVDIIVDIRPAQEDPEVVKNLVLILKCKKSVNWVIKSFDVKGNLKVIAPNSIGFGKESERSMTMTKLVRDDIPSTQENLMKWALDNGYRPVTSYTMAPVANRFHLRLENNEEMRDEEVHTIPPELRILLDPD
notes: also called TβRIIIE; BGE
